Results taken from patent US20180273642A1 (EMERGENT PRODUCT DEVELOPMENT SEATTLE, published 2018).

Assays:
CD28 on CD4+ T cells = target: T1, CD28 on CD4+ T cells (human, UniProt P10747 19-220); test: binding to CD4+ T cells (FIG. 3; method not described)
T1 construct: whole, on cells

CD19 on cells = target: T2, CD19 on cells (UniProt P15391 20-556, limits assumed); test: flow cytometry on Rec1 (CD19+, CD20+) cells, 100 nM to 0.1 nM, goat anti-human IgG-FITC
T2 construct: whole, on cells
T2 sequence (looked up): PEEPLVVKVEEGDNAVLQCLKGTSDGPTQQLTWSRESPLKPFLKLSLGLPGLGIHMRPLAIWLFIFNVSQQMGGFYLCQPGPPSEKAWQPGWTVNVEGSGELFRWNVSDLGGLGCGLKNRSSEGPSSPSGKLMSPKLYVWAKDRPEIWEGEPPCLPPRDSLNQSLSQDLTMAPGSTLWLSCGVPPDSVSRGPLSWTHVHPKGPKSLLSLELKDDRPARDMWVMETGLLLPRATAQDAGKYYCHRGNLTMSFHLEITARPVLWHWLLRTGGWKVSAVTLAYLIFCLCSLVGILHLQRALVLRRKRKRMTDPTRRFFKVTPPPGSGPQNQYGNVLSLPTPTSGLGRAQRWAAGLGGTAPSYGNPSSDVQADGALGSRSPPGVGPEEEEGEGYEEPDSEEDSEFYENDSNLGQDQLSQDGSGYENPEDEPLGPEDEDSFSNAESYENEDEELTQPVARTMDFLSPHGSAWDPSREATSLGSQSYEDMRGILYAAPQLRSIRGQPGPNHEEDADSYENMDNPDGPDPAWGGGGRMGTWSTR
Source text: (§1) T-cells were isolated from donor PBMCs using a Pan T-cell Isolation Kit II from Miltenyi Biotec (Bergisch Gladbach, Germany). Non T-cells were separated from PBMCs by being indirectly magnetically labeled with biotin-conjugated monoclonal antibodies and anti-biotin magnetic microbeads. These cells were then depleted by retaining them in a column surrounded by a magnetic field. The T-cells were not retained in the column and were collected in the flow through.
(§2) The cells were washed three times and then incubated with goat anti-human IgG-FITC (1:200 dilution) for another 30 minutes at 4° C. The cells were then washed again three times, fixed in 1% paraformaldehyde and read on a FACS-Calibur instrument.

CD20 on cells = target: T3, CD20 on cells (UniProt P11836 1-297, limits assumed); test: as above
T3 construct: whole, on cells
T3 sequence (looked up): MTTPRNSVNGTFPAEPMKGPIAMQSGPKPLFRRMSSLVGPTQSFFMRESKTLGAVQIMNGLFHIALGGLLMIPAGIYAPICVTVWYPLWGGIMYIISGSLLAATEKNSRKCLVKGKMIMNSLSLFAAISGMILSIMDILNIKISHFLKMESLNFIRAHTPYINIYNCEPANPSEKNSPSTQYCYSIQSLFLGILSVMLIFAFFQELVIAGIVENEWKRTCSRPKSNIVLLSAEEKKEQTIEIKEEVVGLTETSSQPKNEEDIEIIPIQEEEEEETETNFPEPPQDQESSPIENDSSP
Source text: as §1, §2

B1: monovalent anti-CD28 polypeptide heterodimer X0124 (Fc fusion)
chain 1: QVQLKESGPGSVAPSQSLSITCTVSGFSLTGYGVNWVRQPPGKGLEWLGMIWGDGSTDYNSALKSRLSITKDNSKSQVFLKMNSLQTDDTARYYCARDGYSNFHYYVMDYWGQGTSVTVSSGGGGSGGGGSGGGGSGGGGSDIVLTQSPASLAVSLGQRATISCRASESVEYYVTSLMQWYQQKPGQPPKLLISAASNVESGVPARFSGSGSGTDFSLNIHPVEEDDIAMYFCQQSRKVPWTFGGGTKLEIKSSSASTKGPSVFPLAPSSKSTSGGTAALGCLVKDYFPEPVTVSWNSGALTSGVHTFPAVLQSSGLYSLSSVVTVPSSSLGTQTYICNVNHKPSNTKVDKKVRTEPKSSDKTHTCPPCPSGAPELLGGPSVFLFPPKPKDTLMISRTPEVTCVVVDVSHEDPEVKFNWYVDGVEVHNAKTKPREEQYNSTYRVVSVLTVLHQDWLNGKEYKCKVSNKALPAPIEKTISKAKGQPREPQVYTLPPSRDELTKNQVSLTCLVKGFYPSDIAVEWESNGQPENNYKTTPPVLDSDGSFFLYSKLTVDKSRWQQGNVFSCSVMHEALHNHYTQKSLSLSPGK
chain 2: TVAAPSVFIFPPSDEQLKSGTASVVCLLNNFYPREAKVQWKVDNALQSGNSQESVTEQDSKDSTYSLSSTLTLSKADYEKHKVYACEVTHQGLSSPVTKSFNRGERTEPKSSDKTHTCPPCPSGAPELLGGPSVFLFPPKPKDTLMISRTPEVTCVVVDVSHEDPEVKFNWYVDGVEVHNAKTKPREEQYNSTYRVVSVLTVLHQDWLNGKEYKCKVSNKALPAPIEKTISKAKGQPREPQVYTLPPSRDELTKNQVSLTCLVKGFYPSDIAVEWESNGQPENNYKTTPPVLDSDGSFFLYSKLTVDKSRWQQGNVFSCSVMHEALHNHYTQKSLSLSPGK
notes: One 2E12 (anti-CD28) scFv only; also called X0112 + X0113
B1: binds (CD28 on CD4+ T cells).

B2: 2E12 (anti-CD28) scFv (scFv)
scFv: QVQLKESGPGSVAPSQSLSITCTVSGFSLTGYGVNWVRQPPGKGLEWLGMIWGDGSTDYNSALKSRLSITKDNSKSQVFLKMNSLQTDDTARYYCARDGYSNFHYYVMDYWGQGTSVTVSSGGGGSGGGGSGGGGSGGGGSDIVLTQSPASLAVSLGQRATISCRASESVEYYVTSLMQWYQQKPGQPPKLLISAASNVESGVPARFSGSGSGTDFSLNIHPVEEDDIAMYFCQQSRKVPWTFGGGTKLEIK
notes: also called 2E12 scFv
B2: binds (CD28 on CD4+ T cells).

B3: bispecific polypeptide heterodimer TSC020 (anti-CD19 and anti-CD3) (bispecific antibody)
chain 1: DIVLTQSPASLAVSLGQRATISCKASQSVDYDGDSYLNWYQQIPGQPPKLLIYDASNLVSGIPPRFSGSGSGTDFTLNIHPVEKVDAATYHCQQSTEDPWTFGGGTKLEIKGGGGSGGGGSGGGGASQVQLQQSGAELVRPGSSVKISCKASGYAFSSYWMNWVKQRPGQGLEWIGQIWPGDGDTNYNGKFKGKATLTADESSSTAYMQLSSLASEDSAVYFCARRETTTVGRYYYAMDYWGQGTSVTVSSSEPKSSDKTHTCPPCPSGAPELLGGPSVFLFPPKPKDTLMISRTPEVTCVVVDVSHEDPEVKFNWYVDGVEVHNAKTKPREEQYNSTYRVVSVLTVLHQDWLNGKEYKCKVSNKALPAPIEKTISKAKGQPREPQVYTLPPSRDELTKNQVSLTCLVKGFYPSDIAVEWESNGQPENNYKTTPPVLDSDGSFFLYSKLTVDKSRWQQGNVFSCSVMHEALHNHYTQKSLSLSPGKSRASTKGPSVFPLAPSSKSTSGGTAALGCLVKDYFPEPVTVSWNSGALTSGVHTFPAVLQSSGLYSLSSVVTVPSSSLGTQTYICNVNHKPSNTKVDKKV
chain 2: EVQLQQSGPELVKPGASMKISCKASGYSFTGYIVNWLKQSHGKNLEWIGLINPYKGLTTYNQKFKGKATLTVDKSSSTAYMELLSLTSEDSAVYYCARSGYYGDSDWYFDVWGAGTTVTVSSGGGGSGGGGSGGGGSAQDIQMTQTTSSLSASLGDRVTISCRASQDIRNYLNWYQQKPDGTVKLLIYYTSRLHSGVPSRFSGSGSGTDYSLTIANLQPEDIATYFCQQGNTLPWTFGGGTKLVTKRSSEPKSSDKTHTCPPCPSGAPELLGGPSVFLFPPKPKDTLMISRTPEVTCVVVDVSHEDPEVKFNWYVDGVEVHNAKTKPREEQYNSTYRVVSVLTVLHQDWLNGKEYKCKVSNKALPAPIEKTISKAKGQPREPQVYTLPPSRDELTKNQVSLTCLVKGFYPSDIAVEWESNGQPENNYKTTPPVLDSDGSFFLYSKLTVDKSRWQQGNVFSCSVMHEALHNHYTQKSLSLSPGKSRTVAAPSVFIFPPSDEQLKSGTASVVCLLNYFYPREAKVQWKVDNALQSGNSQESATEQDSKDSTYSLSSELTLSKADYEKHKVYACEVTHQGLSSPVTKSFNRGE
notes: HD37 (anti-CD19) scFv and G19-4 (anti-CD3) scFv; also called CD19×αCD3; TSC001 + TSC019
B3: binds (CD19 on cells).

B4: bispecific (CD20, CD3) polypeptide heterodimer TSC021 (bispecific antibody)
chain 1: QIVLSQSPAILSASPGEKVTMTCRASSSVSYMHWYQQKPGSSPKPWIYAPSNLASGVPARFSGSGSGTSYSLTISRVEAEDAATYYCQQWSFNPPTFGAGTKLELKDGGGSGGGGSGGGGASQAYLQQSGAESVRPGASVKMSCKASGYTFTSYNMHWVKQTPRQGLEWIGAIYPGNGDTSYNQKFKGKATLTVDKSSSTAYMQLSSLTSEDSAVYFCARVVYYSNSYWYFDVWGTGTTVTVSSSEPKSSDKTHTCPPCPSGAPELLGGPSVFLFPPKPKDTLMISRTPEVTCVVVDVSHEDPEVKFNWYVDGVEVHNAKTKPREEQYNSTYRVVSVLTVLHQDWLNGKEYKCKVSNKALPAPIEKTISKAKGQPREPQVYTLPPSRDELTKNQVSLTCLVKGFYPSDIAVEWESNGQPENNYKTTPPVLDSDGSFFLYSKLTVDKSRWQQGNVFSCSVMHEALHNHYTQKSLSLSPGKSRASTKGPSVFPLAPSSKSTSGGTAALGCLVKDYFPEPVTVSWNSGALTSGVHTFPAVLQSSGLYSLSSVVTVPSSSLGTQTYICNVNHKPSNTKVDKKV
chain 2: B3 chain 2
notes: 2H7 (anti-CD20) scFv and G19-4 (anti-CD3) scFv; also called αCD20×αCD3; TSC002 + TSC019
B4: binds (CD20 on cells).

B5: bivalent anti-CD28 polypeptide heterodimer X0172 (Fc fusion)
chain 1: QVQLKESGPGSVAPSQSLSITCTVSGFSLTGYGVNWVRQPPGKGLEWLGMIWGDGSTDYNSALKSRLSITKDNSKSQVFLKMNSLQTDDTARYYCARDGYSNFHYYVMDYWGQGTSVTVSSGGGGSGGGGSGGGGSGGGGSDIVLTQSPASLAVSLGQRATISCRASESVEYYVTSLMQWYQQKPGQPPKLLISAASNVESGVPARFSGSGSGTDFSLNIHPVEEDDIAMYFCQQSRKVPWTFGGGTKLEIKSSSASTKGPSVFPLAPSSKSTSGGTAALGCLVKDYFPEPVTVSWNSGALTSGVHTFPAVLQSSGLYSLSSVVTVPSSSLGTQTYICNVNHKPSNTKVDKKVRTEPKSSDKTHTCPPCPSGAPELLGGPSVFLFPPKPKDTLMISRTPEVTCVVVDVSHEDPEVKFNWYVDGVEVHNAKTKPREEQYNSTYRVVSVLTVLHQDWLNGKEYKCKVSNKALPAPIEKTISKAKGQPREPQVYTLPPSRDELTKNQVSLTCLVKGFYPSDIAVEWESNGQPENNYKTTPPVLDSDGSFFLYSKLTVDKSRWQQGNVFSCSVMHEALHNHYTQKSLSLSPGKSRTVAAPSVFIFPPSDEQLKSGTASVVCLLNNFYPREAKVQWKVDNALQSGNSQESVTEQDSKDSTYSLSSTLTLSKADYEKHKVYACEVTHQGLSSPVTKSFNRGE
chain 2: TVAAPSVFIFPPSDEQLKSGTASVVCLLNNFYPREAKVQWKVDNALQSGNSQESVTEQDSKDSTYSLSSTLTLSKADYEKHKVYACEVTHQGLSSPVTKSFNRGERTEPKSSDKTHTCPPCPSGAPELLGGPSVFLFPPKPKDTLMISRTPEVTCVVVDVSHEDPEVKFNWYVDGVEVHNAKTKPREEQYNSTYRVVSVLTVLHQDWLNGKEYKCKVSNKALPAPIEKTISKAKGQPREPQVYTLPPSRDELTKNQVSLTCLVKGFYPSDIAVEWESNGQPENNYKTTPPVLDSDGSFFLYSKLTVDKSRWQQGNVFSCSVMHEALHNHYTQKSLSLSPGKSRASTKGPSVFPLAPSSKSTSGGTAALGCLVKDYFPEPVTVSWNSGALTSGVHTFPAVLQSSGLYSLSSVVTVPSSSLGTQTYICNVNHKPSNTKVDKKVNSLFNQEVQIPLTESYSPNSQVQLKESGPGSVAPSQSLSITCTVSGFSLTGYGVNWVRQPPGKGLEWLGMIWGDGSTDYNSALKSRLSITKDNSKSQVFLKMNSLQTDDTARYYCARDGYSNFHYYVMDYWGQGTSVTVSSGGGGSGGGGSGGGGSGGGGSDIVLTQSPASLAVSLGQRATISCRASESVEYYVTSLMQWYQQKPGQPPKLLISAASNVESGVPARFSGSGSGTDFSLNIHPVEEDDIAMYFCQQSRKVPWTFGGGTKLEIK
notes: also called X0130 + X0168
B5: binds (CD28 on CD4+ T cells).
